Assay results as given in US20140087995A1 (published 2014).
Numbered stars: 1 amine (or outer) side, 2 acyl side, 3 side chain; on linkers, the order of the positions; unused ones are H or OH. Bridge positions count the residues as written; N and C are the ends. Side chains are listed from the residue outwards. Ends that are not written are not given here. * marks the point of attachment. C20 diacid = O=C(O)CCCCCCCCCCCCCCCCCCC(=O)*; γGlu = O=C(O)[C@H](CCC(=O)[*:2])N[*:1]

Assays:
[1] = target: T1, rat calcitonin receptor (rat, UniProt P32214 25-516); assay: ratio of IC50 on rat calcitonin receptor to IC50 on rat amylin receptor
T1 construct: whole, on cells; Membranes prepared from transiently transfected BHK tk'ts 13 cells; also called rCTR; rat calcitonin (a) receptor
T1 sequence (looked up): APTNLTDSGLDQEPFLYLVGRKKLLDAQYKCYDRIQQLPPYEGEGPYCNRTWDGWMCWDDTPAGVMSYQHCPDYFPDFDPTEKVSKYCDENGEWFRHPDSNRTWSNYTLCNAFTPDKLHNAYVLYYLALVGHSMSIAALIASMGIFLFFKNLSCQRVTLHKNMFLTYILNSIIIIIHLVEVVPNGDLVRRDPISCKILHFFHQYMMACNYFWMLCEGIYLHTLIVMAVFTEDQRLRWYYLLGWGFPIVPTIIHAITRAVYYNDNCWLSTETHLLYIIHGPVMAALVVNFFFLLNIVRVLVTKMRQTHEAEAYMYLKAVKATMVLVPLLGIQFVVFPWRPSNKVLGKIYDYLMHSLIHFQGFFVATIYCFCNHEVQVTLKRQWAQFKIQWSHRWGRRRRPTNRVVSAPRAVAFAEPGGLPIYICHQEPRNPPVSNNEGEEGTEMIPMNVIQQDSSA

[2] = target: T2, rat amylin receptor (rat calcitonin receptor + rat RAMP 3) (rat, UniProt P32214 25-516; Q9JJ73 23-147); assay: SPA competition vs 125I-rat amylin, membranes (Assay VI)
T2 construct: whole, on cells; Membranes prepared from transiently transfected BHK tk'ts 13 cells; also called rAmylin-R; rat amylin 3(a) receptor
T2 sequence (looked up) 1: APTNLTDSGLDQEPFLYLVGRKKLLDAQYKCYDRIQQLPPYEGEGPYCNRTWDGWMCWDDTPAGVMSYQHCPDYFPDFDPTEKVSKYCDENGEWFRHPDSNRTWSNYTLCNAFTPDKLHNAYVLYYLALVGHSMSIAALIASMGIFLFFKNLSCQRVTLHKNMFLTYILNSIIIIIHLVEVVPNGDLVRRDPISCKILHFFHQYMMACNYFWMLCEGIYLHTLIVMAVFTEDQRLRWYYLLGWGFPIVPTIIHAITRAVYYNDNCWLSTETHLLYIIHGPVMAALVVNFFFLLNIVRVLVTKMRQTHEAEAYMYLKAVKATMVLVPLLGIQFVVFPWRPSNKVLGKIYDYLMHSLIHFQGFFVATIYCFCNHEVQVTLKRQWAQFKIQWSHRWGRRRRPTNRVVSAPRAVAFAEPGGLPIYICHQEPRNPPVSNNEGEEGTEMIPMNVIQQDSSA
T2 sequence (looked up) 2: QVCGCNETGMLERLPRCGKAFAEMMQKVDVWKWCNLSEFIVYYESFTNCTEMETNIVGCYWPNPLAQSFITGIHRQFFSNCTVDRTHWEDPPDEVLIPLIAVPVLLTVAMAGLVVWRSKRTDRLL

[3] = target: T3, human calcitonin receptor (human, UniProt P30988 25-474); assay: ratio of IC50 on human calcitonin receptor to IC50 on human amylin receptor
T3 construct: whole, on cells; Membranes from stably transfected BHK cells; also called hCTR; hCT
T3 sequence (looked up): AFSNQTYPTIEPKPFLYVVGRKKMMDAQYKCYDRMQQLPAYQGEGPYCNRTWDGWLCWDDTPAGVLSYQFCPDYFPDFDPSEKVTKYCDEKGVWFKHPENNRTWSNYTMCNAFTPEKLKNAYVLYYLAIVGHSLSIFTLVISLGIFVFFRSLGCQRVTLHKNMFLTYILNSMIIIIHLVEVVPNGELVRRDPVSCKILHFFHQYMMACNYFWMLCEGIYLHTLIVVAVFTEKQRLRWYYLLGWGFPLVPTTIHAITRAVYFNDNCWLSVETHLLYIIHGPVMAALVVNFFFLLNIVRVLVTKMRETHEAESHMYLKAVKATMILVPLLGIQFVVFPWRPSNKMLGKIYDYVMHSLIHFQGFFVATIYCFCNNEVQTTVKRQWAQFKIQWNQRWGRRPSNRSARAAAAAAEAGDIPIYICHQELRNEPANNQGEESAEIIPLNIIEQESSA
Description: The resulting pellet was resuspended, homogenized and centrifuged (20.000 rpm, 15 min) in a buffer containing 20 mM Na-HEPES and 0.1 mM EDTA (pH 7.4, buffer 2). The resulting pellet was resuspended in buffer 2 and protein concentration was measured (BCA protein Assay, Pierce). The homogenate was kept cold during the whole procedure. The membranes were kept at −80° C. until use. The assay was performed in a 384 well Optiplate (PerkinElmer) in a total volume of 40 ul. Membranes were mixed with SPA beads. Final concentration of membranes 35 ng/μL final and SPA beads was 0.05 mg/well. Test-compounds were dissolved in DMSO and further diluted in assay buffer (50 mM Hepes, pH 7.4, 1 mM CaCl2, 5 mM MgCl₂, 0.1% OA and 0.02% Tween20). […] The final mixture was incubated with shaking at 400 rpm for 120 min at 25° C. prior to centrifugation (1500 rpm, 10 min). Samples were analyzed on TopCounter™ (Packard). The IC₅₀ was calculated using (one site binding competition analysis) GraphPad Prism5 as a measure of receptor affinity.
Membranes were prepared in the following way; the cells were rinsed with PBS and incubated with Versene for approximately 5 min before harvesting. The cells were flushed with PBS and the cell-suspension was centrifuged for 5 min at 1000 rpm. Cells were homogenized (Ultrathurrax) in a buffer containing 20 mM Na-HEPES and 10 mM EDTA (pH 7.4) and centrifuged at 20.000 rpm for 15 min. The resulting pellet was resuspended, homogenized and centrifuged (20.000 rpm, 15 min) in a buffer containing 20 mM Na-HEPES and 0.1 mM EDTA (pH 7.4, buffer 2). The resulting pellet was resuspended in buffer 2 and protein concentration was measured (BCA protein Assay, Pierce). The homogenate was kept cold during the whole procedure. The membranes were kept at −80° C. until use. Assay was performed in a 384 well Optiplate (PerkinElmer) in a total volume of 40 ul. Membranes were mixed with SPA beads.

[4] = target: T1, rat calcitonin receptor; assay: SPA competition vs 125I-calcitonin, membranes (Assay VIII)

B1: N^ε1-[(4S)-4-carboxy-4-(19-carboxynonadecanoylamino)butanoyl]-[Asp14,Arg17,Pro21,Pro27,Pro34,Arg35]-h-amylin (peptide)
peptide: K([γGlu-C20 diacid])CNTATCATQRLADFLRHSSPNFGAIPSSTNVGPRTY-NH2
modifications: disulfide 2-7; N-terminus assumed
SMILES: CC[C@H](C)[C@H](NC(=O)[C@H](C)NC(=O)CNC(=O)[C@H](Cc1ccccc1)NC(=O)[C@H](CC(N)=O)NC(=O)[C@@H]1CCCN1C(=O)[C@H](CO)NC(=O)[C@H](CO)NC(=O)[C@H](Cc1c[nH]cn1)NC(=O)[C@H](CCCNC(=N)N)NC(=O)[C@H](CC(C)C)NC(=O)[C@H](Cc1ccccc1)NC(=O)[C@H](CC(=O)O)NC(=O)[C@H](C)NC(=O)[C@H](CC(C)C)NC(=O)[C@H](CCCNC(=N)N)NC(=O)[C@H](CCC(N)=O)NC(=O)[C@@H](NC(=O)[C@H](C)NC(=O)[C@@H]1CSSC[C@H](NC(=O)[C@@H](N)CCCCNC(=O)CC[C@H](NC(=O)CCCCCCCCCCCCCCCCCCC(=O)O)C(=O)O)C(=O)N[C@@H](CC(N)=O)C(=O)N[C@@H]([C@@H](C)O)C(=O)N[C@@H](C)C(=O)N[C@@H]([C@@H](C)O)C(=O)N1)[C@@H](C)O)C(=O)N1CCC[C@H]1C(=O)N[C@@H](CO)C(=O)N[C@@H](CO)C(=O)N[C@H](C(=O)N[C@@H](CC(N)=O)C(=O)N[C@H](C(=O)NCC(=O)N1CCC[C@H]1C(=O)N[C@@H](CCCNC(=N)N)C(=O)N[C@H](C(=O)N[C@@H](Cc1ccc(O)cc1)C(N)=O)[C@@H](C)O)C(C)C)[C@@H](C)O
Ratio rCT/rAmylin binding [1]: 116
IC50 [2]: 0.504 nM
Ratio hCT/hAmylin binding [3]: 151
IC50 [4]: 58.5 nM

B2: N^ε1-[(4S)-4-carboxy-4-(19-carboxynonadecanoylamino)butanoyl]-[Asp14,Arg17,Pro21,Pro27,Pro34,Glu35]-h-amylin (peptide)
peptide: K([γGlu-C20 diacid])CNTATCATQRLADFLRHSSPNFGAIPSSTNVGPETY-NH2
modifications: disulfide 2-7; N-terminus assumed
SMILES: CC[C@H](C)[C@H](NC(=O)[C@H](C)NC(=O)CNC(=O)[C@H](Cc1ccccc1)NC(=O)[C@H](CC(N)=O)NC(=O)[C@@H]1CCCN1C(=O)[C@H](CO)NC(=O)[C@H](CO)NC(=O)[C@H](Cc1c[nH]cn1)NC(=O)[C@H](CCCNC(=N)N)NC(=O)[C@H](CC(C)C)NC(=O)[C@H](Cc1ccccc1)NC(=O)[C@H](CC(=O)O)NC(=O)[C@H](C)NC(=O)[C@H](CC(C)C)NC(=O)[C@H](CCCNC(=N)N)NC(=O)[C@H](CCC(N)=O)NC(=O)[C@@H](NC(=O)[C@H](C)NC(=O)[C@@H]1CSSC[C@H](NC(=O)[C@@H](N)CCCCNC(=O)CC[C@H](NC(=O)CCCCCCCCCCCCCCCCCCC(=O)O)C(=O)O)C(=O)N[C@@H](CC(N)=O)C(=O)N[C@@H]([C@@H](C)O)C(=O)N[C@@H](C)C(=O)N[C@@H]([C@@H](C)O)C(=O)N1)[C@@H](C)O)C(=O)N1CCC[C@H]1C(=O)N[C@@H](CO)C(=O)N[C@@H](CO)C(=O)N[C@H](C(=O)N[C@@H](CC(N)=O)C(=O)N[C@H](C(=O)NCC(=O)N1CCC[C@H]1C(=O)N[C@@H](CCC(=O)O)C(=O)N[C@H](C(=O)N[C@@H](Cc1ccc(O)cc1)C(N)=O)[C@@H](C)O)C(C)C)[C@@H](C)O
Ratio rCT/rAmylin binding [1]: 62
IC50 [2]: 0.3 nM
Ratio hCT/hAmylin binding [3]: 16.7
IC50 [4]: 18.6 nM

B3: N^ε1-[(4S)-4-carboxy-4-(19-carboxynonadecanoylamino)butanoyl]-[Glu14,Arg17,Pro21,Pro27,Arg34,Glu35]-h-amylin (peptide)
peptide: K([γGlu-C20 diacid])CNTATCATQRLAEFLRHSSPNFGAIPSSTNVGRETY-NH2
modifications: disulfide 2-7; N-terminus assumed
SMILES: CC[C@H](C)[C@H](NC(=O)[C@H](C)NC(=O)CNC(=O)[C@H](Cc1ccccc1)NC(=O)[C@H](CC(N)=O)NC(=O)[C@@H]1CCCN1C(=O)[C@H](CO)NC(=O)[C@H](CO)NC(=O)[C@H](Cc1c[nH]cn1)NC(=O)[C@H](CCCNC(=N)N)NC(=O)[C@H](CC(C)C)NC(=O)[C@H](Cc1ccccc1)NC(=O)[C@H](CCC(=O)O)NC(=O)[C@H](C)NC(=O)[C@H](CC(C)C)NC(=O)[C@H](CCCNC(=N)N)NC(=O)[C@H](CCC(N)=O)NC(=O)[C@@H](NC(=O)[C@H](C)NC(=O)[C@@H]1CSSC[C@H](NC(=O)[C@@H](N)CCCCNC(=O)CC[C@H](NC(=O)CCCCCCCCCCCCCCCCCCC(=O)O)C(=O)O)C(=O)N[C@@H](CC(N)=O)C(=O)N[C@@H]([C@@H](C)O)C(=O)N[C@@H](C)C(=O)N[C@@H]([C@@H](C)O)C(=O)N1)[C@@H](C)O)C(=O)N1CCC[C@H]1C(=O)N[C@@H](CO)C(=O)N[C@@H](CO)C(=O)N[C@H](C(=O)N[C@@H](CC(N)=O)C(=O)N[C@H](C(=O)NCC(=O)N[C@@H](CCCNC(=N)N)C(=O)N[C@@H](CCC(=O)O)C(=O)N[C@H](C(=O)N[C@@H](Cc1ccc(O)cc1)C(N)=O)[C@@H](C)O)C(C)C)[C@@H](C)O
Ratio rCT/rAmylin binding [1]: 81.1
IC50 [2]: 1.06 nM
Ratio hCT/hAmylin binding [3]: 28.5
IC50 [4]: 86.1 nM

B4: N^ε1-[(4S)-4-carboxy-4-(19-carboxynonadecanoylamino)butanoyl]-[Glu14,Arg17,Pro21,Pro27,His34,Glu35]-h-amylin (peptide)
peptide: K([γGlu-C20 diacid])CNTATCATQRLAEFLRHSSPNFGAIPSSTNVGHETY-NH2
modifications: disulfide 2-7; N-terminus assumed
SMILES: CC[C@H](C)[C@H](NC(=O)[C@H](C)NC(=O)CNC(=O)[C@H](Cc1ccccc1)NC(=O)[C@H](CC(N)=O)NC(=O)[C@@H]1CCCN1C(=O)[C@H](CO)NC(=O)[C@H](CO)NC(=O)[C@H](Cc1c[nH]cn1)NC(=O)[C@H](CCCNC(=N)N)NC(=O)[C@H](CC(C)C)NC(=O)[C@H](Cc1ccccc1)NC(=O)[C@H](CCC(=O)O)NC(=O)[C@H](C)NC(=O)[C@H](CC(C)C)NC(=O)[C@H](CCCNC(=N)N)NC(=O)[C@H](CCC(N)=O)NC(=O)[C@@H](NC(=O)[C@H](C)NC(=O)[C@@H]1CSSC[C@H](NC(=O)[C@@H](N)CCCCNC(=O)CC[C@H](NC(=O)CCCCCCCCCCCCCCCCCCC(=O)O)C(=O)O)C(=O)N[C@@H](CC(N)=O)C(=O)N[C@@H]([C@@H](C)O)C(=O)N[C@@H](C)C(=O)N[C@@H]([C@@H](C)O)C(=O)N1)[C@@H](C)O)C(=O)N1CCC[C@H]1C(=O)N[C@@H](CO)C(=O)N[C@@H](CO)C(=O)N[C@H](C(=O)N[C@@H](CC(N)=O)C(=O)N[C@H](C(=O)NCC(=O)N[C@@H](Cc1c[nH]cn1)C(=O)N[C@@H](CCC(=O)O)C(=O)N[C@H](C(=O)N[C@@H](Cc1ccc(O)cc1)C(N)=O)[C@@H](C)O)C(C)C)[C@@H](C)O
notes: also called compound 107
Ratio rCT/rAmylin binding [1]: 34.6
IC50 [2]: 0.958 nM
Ratio hCT/hAmylin binding [3]: 11.1
IC50 [4]: 33.1 nM
